Experiment [1] has as its target Cynomolgus C5 (Cynomolgus). Briefly: BLI (Gator); pH 5.8.
For experiment [2], the target named is Cynomolgus C5 (Cynomolgus). Briefly: BLI (Gator); pH 7.4.
Experiment [3] addresses human FcRn (human) (UniProt P55899). Briefly: SPR (Biacore); pH 6.0. (In general: SPR reads the build-up and loss of mass on a sensor chip optically.)

1 substance from patent US20220204602A1 can be followed below.

Sequence of human FcRn (human) (P55899 24-297, chain 1 of 2): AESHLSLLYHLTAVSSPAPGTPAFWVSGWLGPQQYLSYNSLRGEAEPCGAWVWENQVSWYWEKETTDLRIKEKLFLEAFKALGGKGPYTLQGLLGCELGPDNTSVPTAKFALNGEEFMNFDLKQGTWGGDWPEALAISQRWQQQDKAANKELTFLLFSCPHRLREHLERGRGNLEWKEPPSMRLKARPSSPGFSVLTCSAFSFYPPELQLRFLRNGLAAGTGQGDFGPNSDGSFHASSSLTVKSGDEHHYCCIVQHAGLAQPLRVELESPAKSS
Sequence of human FcRn (human) (main, as listed by the source, chain 2 of 2): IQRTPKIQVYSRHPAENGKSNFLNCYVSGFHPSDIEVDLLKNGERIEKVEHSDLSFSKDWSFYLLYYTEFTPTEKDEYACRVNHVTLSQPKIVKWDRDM

Usually Kd stands for the concentration at which binding is half-saturated. The low end stands for a tighter complex, the high end for a looser complex. “anti-C5 mAb/FH SCR1-5 fusion protein FMEH-IgG4PLA-FH1-5 (from UniProt P08603 19-322)”: the Kd was 41.1 nM in experiment [1] and 6.04 nM in experiment [2]. Also, the Ka in experiment [3] turned out to be 1.13e+08 M⁻¹.
